# Test results published in the DeepSol protein solubility set.
# Assay: soluble on expression in E. coli; label from the status in PepcDB or PDB records
row,Sequence,soluble on expression in E. coli
1,MRKVRVGIWGFGAMGIGMANMILKKEGIEIVSVCSRSTSGKSMYDVLGIERGERPEVIINKNYEEVFREKSVDVVLLATDSFTKKAFDKIIFLLNRKINVISTAEQMAYPQADDADLAKKMDEVAKENGVSILGTGINPGFVLDLLVLALSGTCEEVTSIKAKRVNDLSPFGKSVMVEQGVGVTREEFIKGVEDKTIAGHVGFVESINMIADGLGWKLDKIEQTKEPIMTTVDRKSKYGEALAGNVAGCRQCGYGYVNGEVLIEMEHPQQIIPEAEGIKTGDYVSIKGIPNIDLQINPEIPGGVGTYAMIVNSIPLIINARPGLKTMLDIPVPRAIMGDIRNQIEVELEEESKAN,not soluble
2,MRKYKLGIYEKALPKNISWQDRLSIAKSCGFDFVEMSIDETDERLARLEWSKEQRLALVNSIVTTGITIPSMCLSGHRRFPFGTRDQATREKAYEIMEKAIQFAVDTGIRTIQLAGYDVYYEEQDQGTIERFQQGLAWAVELAASNQVTLAVEIMDTPFMSSISRWKKWDEMINSPWFTVYPDIGNLSAWNDNIEQELALGINKISAIHLKDTYKITKDCAGQFRDVPFGDGCVDFKGFFEILAKLNYRGAFLIEMWTEKAEEPIAEIINARRWIEQKMKEGGFEC,not soluble
3,MRLAFFGDVHGNFEALKAVLEDMENKGVDEVFCLGDLVGYGPDPEAVVQTIMEKNIKTIMGNYDDAVGYSKESCGCSYAPGRETEVGDISLKWSIENTSEKTREFLRNLPKKLSFEVEGVRFLLVHGSPLNELLEYVKPNTPPDRLKKIVESVEENVVVNGHTHLPMVKWVMGKLVLNPGSAGRPKDGDPRASYMIVDVENGTVSFEIVRVRYDVKTTVEKIARNGLPVELATVLALGQTFDMGPGKVTFTLGR,soluble
4,MRLALAVLILLLSIAPAMALCSYEVVEERYADPFTVDISSMPSLKDLPVDDPSDGIDWVKVPLPKPCVNGMGKDTFIMVRKGSSNNLLIFFEGGGACADYETCKPMLCTDLKSCKPLLGIGSVVALESNFCFLKLYYRGGIFDVKKAENPFRDWTIVFVPYNTGDLHMGNRVVRYFDDGKEKTIYHVGYVNAIVAMRWIKENGNFDRIVVAGSSAGGYATLLHGYTAWSIFGKPVTVINDAGPGINPDSDSKFQVNEIMERWGSKQNFPPEALQYFEGKDPAYAIEYFLDKCSDCVYGFFEDQKDLVIGSVFSAYWPWQFKTRLLKVTDELRDYSDRYCRFLPYDYQHTVLTGGLLYPLQKDRFYCEKVGGYRVYEWVKELLRGNCVDLVELEHHHHHH,not soluble
5,MRLEGLTIGVGFTGSFCTYDKIFIELENLVKEGANVHTIFSDVSQNIDCRFGNSEEFMKKAYELTGNKPIVTIEEAEPFGPKGIADIIIIAPCTGNTAAKLANGITDSPVLMAAKGHLRNDKPLVISISTNDALSFNFKNIGILLNSKNIYFVPFGQDNCKAKPNSMIAHTELIIPTIELALENKQLQPVIKSPHQLEHHHHHH,soluble
6,MRLKDLGERALLARLAPLGYPPEAPLPPGDDAGGVWAEGRAWLLKTDGFLYREVALKGMGPFEVGFRGVAATASDLLAKMGRPLGFTLGLFLPEDLEEGFVLELVRGAAEAAKRLGAFLLGGDTNRGVEVALTVSGYALAEAPLPRKALPGDLLYLAGDRWGRTGAAIRAHYEGRSLEGFPKIREAAFYPLPRLELLALSGLLRGSLDSSDGLAETLWQLADLGVGVEVEALPLYPDVLAFAGSEEAALELVLYGGEEFEAVLVVPQEGAAAVEARAKAKGLPLFRAGRVVAGEGVYLRGAPLPRKGYAHF,soluble
7,MRLLDIWMRSAAALMLLSGAAFADVTVSQSNDPSVSLGGQLSALLGAERSALGTLPAQRLEQVAAAVARPEAKPEAPVKAVATKGNRGAKAADDAPAPRYDEAWLASQPATAKDSDEWKCLATALYFEARGESIQGQFAVAEVIMNRVDRPGYPGSICGVVRQGGQFSFMFDGKPETIREKAAFQRAGKIAALMLAGAPRQLTQGATHFHTRAVRPGWAHRFPRTAAIGAHLFYRQPGGS,not soluble
8,MRLLTWDVKDTLLRLRHPLGEAYATKARAHGLEVEPSALEQGFRQAYRAQSHSFPNYGLSHGLTSRQWWLDVVLQTFHLAGVQDAQAVAPIAEQLYKDFSHPCTWQVLDGAEDTLRECRTRGLRLAVISNFDRRLEGILGGLGLREHFDFVLTSEAAGWPKPDPRIFQEALRLAHMEPVVAAHVGDNYLCDYQGPRAVGMHSFLVVGPQALDPVVRDSVPKEHILPSLAHLLPALDCLEGSAENLYFQSHHHHHHDYKDDDDK,soluble
